For one series, the system named is human basophils. Description: Basophil depletion (cytotoxic) activity in human peripheral blood cells, flow cytometry. Format: cell-based. The note with it: 37° C., 20 hours. As to the method: Human peripheral blood collected by adding a heparin sodium injection liquid was centrifuged at 4° C. and 1500 rpm for 30 minutes, and the plasma was recovered.
After the plasma was recovered, PBS (NACALAI TESQUE, Inc.) was added to the pellet containing the red blood up to the original volume of blood and the pellet was suspended. Next, to 1 mL of the suspension, 10 mL of hemolyzing solution [solution obtained by diluting 10×RBC Lysis buffer (eBioscience) 10 times with sterile water] was added to be mixed by inversion. The resultant was allowed to stand at room temperature for 10 minutes and centrifuged at room temperature and 1500 rpm for 5 minutes and washed twice with PBS after the supernatant was removed therefrom.
Thereafter, the cell pellet was suspended with the recovered plasma and the cells were seeded in a 48-well plate at 300 μL/well, each of chLym2, humanized Lym2 antibodies LV0HV0, LV0HV1, and LV0HV2a, or an isotype control antibody [IgG1 antibody prepared according to the method described in Example 5 using a vector encoding an anti-2,4-dinitrophenol (DNP) IgG1 antibody described in Clin Cancer Res 2005, 11(8), 3126 to 3135 (hereinafter, referred to as anti-DNP IgG1 antibody)] were added at each final concentrations of 1000, 100, 33, 11, 3.7, 1.2, 0.4, and 0.01 ng/mL to cause a reaction in a 5% CO2 incubator at 37° C. for 20 hours.
After the reaction, the cell fluid in each well was recovered, 10 mL of SM was added thereto, 200 μL per sample of CountBright Absolute Counting Beads, for flow cytometry (Molecular Probes) was added as control beads, and the fluid was centrifuged at 4° C. and 2000 rpm for 10 minutes, and then the supernatant was removed. The resultant was washed twice with SM, 10000 μg/mL of IgG from human serum (Sigma-Aldrich Co. LLC) diluted with SM was added at 300 μL/sample and suspended to cause a reaction at 4° C. for 30 minutes. […]
The cells were washed twice with SM, suspended by SM containing 1% of 7-AAD Staining Solution (BD Biosciences), allowed to stand at 4° C. for 10 minutes, and the fluorescent intensity was analyzed by flow cytometry (BD Biosciences, FACS CantoII).
Human eosinophils were detected as 7-AAD negative siglec8-PE positive fractions in granulocyte fractions of FSC-SSC deployment. Human basophils were detected as 7-AAD negative fractions, CD123-PC-Cy7 positive fractions, FcεRI-APC positive fractions in lymphocyte fractions of FSC-SSC deployment. The cell depletion activity was evaluated by analyzing the count number of each cell per a certain number of CountBright. […]
On the technique in general: In flow cytometry, cells or beads pass a laser one at a time.

A further series relates to human eosinophils. As to the kind of experiment: Agonist activity using shape change of human eosinophils as index (Example 20). Format: cell-based. The following applies: 0 to 10 μg/mL, 1 hour; FIG. 17. As for the experimental part: In the same experimental system as in Example 19 described above, rat anti-human CRTH2 antibody Lym2 at each final concentration of 0, 0.01, 0.1, 1, and 10 μg/mL was added and a reaction was performed for 1 hour and shape change of eosinophils was analyzed.

Positions count from the first letter of the chain named.

These results are taken from patent US10100120B2, “Antibody which specifically binds to human CRTH2” (KYOWA HAKKO KIRIN CO., LTD, priority 2015, dated 2018).

B1: LV0HV1: humanized Lym2 antibody, VL LV0 (SEQ ID NO: 33), VH HV1 (SEQ ID NO: 51) (antibody, V domains shown)
VH: EVQLVESGGGVVQPGRSLRLSCAASGFTFSNYYMAWVRQAPGKGLEWVATISYDGSSTYYRDSVKGRFTISRDNAKNSLYLQMNSLRAEDTATYYCARHRGYYYSGAGYFDYWGQGTMVTVSS
VL: DIVMTQTPLSLPVTPGESASISCRSSQSLEYSDGYTYLEWYLQKPGQSPQVLIYGVSNRFSGVPDRFSGSGSGTDFTLKISRVEAEDVGVYYCFQATHDPLTFGQGTKLEIK
On to B1, for which the “cytotoxic activity against basophils” value in the series on human basophils (Example 8, 0.01-1000 ng/mL, FIG. 3) is listed as “comparable to the chimeric Lym2 antibody chLym2”. Further, the removal of basophils result in the series on human basophils (Example 14, 0.1-1000 ng/mL, FIG. 11) was “removed”.

B2: Lym2 antibody: rat anti-human CRTH2 monoclonal antibody from hybridoma Lym2, rat IgG2b; VH SEQ ID NO: 17, VL SEQ ID NO: 19 (antibody, listed as Rattus norvegicus, V domains shown)
VH: B1 VH with V11L, L18M, R19K, G42K, N77S, S78T, N84D, A88S, T117V
VL: DVVLTQTPVSLSVTLGDQASISCRSSQSLEYSDGYTYLEWYLQKPGQSPQVLIYGVSNRFSGVPDRFIGSGSGTDFTLKISRVEPEDLGVYYCFQATHDPLTFGSGTKLEIK
Regarding B2, the “shape change of eosinophils caused by antibody (agonist activity)” value with human eosinophils is “doesn't cause the shape change”.
